These are literature values, as cited in article PMC3991732.

The data set addresses ubiquitin (Homo sapiens) (UniProt P0CG48). As to the kind of experiment: NMR.

Sequence of CD2AP SH3-C (Q9Y5K6 269-330): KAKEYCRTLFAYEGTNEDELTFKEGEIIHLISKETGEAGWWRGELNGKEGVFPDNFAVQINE

On to CD2AP SH3-C (from UniProt Q9Y5K6), for which the Kd is 132 µM.

As usually defined, the Kd is the equilibrium constant for the complex coming apart.
